We go through two substances from paper PMC1420302.

For the assay, the target named is SF3b1-NT-His6 (human) (UniProt O75533).
Sequence of UniProt O75533 (O75533 1-511): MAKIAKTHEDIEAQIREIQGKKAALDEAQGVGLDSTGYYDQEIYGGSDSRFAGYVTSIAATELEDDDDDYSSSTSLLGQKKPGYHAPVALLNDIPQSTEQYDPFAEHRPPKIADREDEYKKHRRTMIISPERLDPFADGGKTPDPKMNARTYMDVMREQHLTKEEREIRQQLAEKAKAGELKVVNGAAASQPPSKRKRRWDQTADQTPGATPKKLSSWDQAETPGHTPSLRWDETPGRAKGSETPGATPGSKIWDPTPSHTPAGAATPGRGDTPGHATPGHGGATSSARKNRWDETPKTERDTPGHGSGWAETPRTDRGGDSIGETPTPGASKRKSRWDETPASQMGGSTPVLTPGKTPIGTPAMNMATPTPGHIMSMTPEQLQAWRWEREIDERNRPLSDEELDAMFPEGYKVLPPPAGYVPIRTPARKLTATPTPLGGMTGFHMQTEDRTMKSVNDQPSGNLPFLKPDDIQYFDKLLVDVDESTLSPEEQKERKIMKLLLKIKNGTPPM

For “GST-DYRK1A-ΔC (from UniProt Q63470 1-763) (enzyme)”, the approximate Km of phosphorylation, from velocities of phosphate incorporation at 0.7 and 7 μM substrate was determined as 2.75 µM.

Regarding “cyclin E/CDK2 (from UniProt P24864 1-410; P24941 1-298) (complex)”, the approximate Km of phosphorylation, from velocities of phosphate incorporation at 0.7 and 7 μM substrate came to 3.51 µM.
